This note sets out measurements from patent US20200255478A1, “NOVEL COMPOUNDS ACTIVATING THE NRF2 PATHWAY” (Almirall, S.A., priority 2017, published 2020).

“And” between values parts separate entries of the source, which are not always exact repeats. Equal entries are not always repeated. Positions of bridges follow the written chain, without caps; N, C: chain ends. Non-standard residues stand in square brackets, D forms with d. βAla = NCCC(=O)O

The target of this assay is Keap1-Maltose Binding Protein (MBP tag), Q14145. Kind of assay: TR-FRET competition vs ETGE-biotin; grade band per paragraph 615. Background: Time-resolved FRET reads energy transfer from a long-lived donor to a nearby acceptor.
Chain of Keap1-Maltose Binding Protein (MBP tag), Q14145 (Q14145 321-609 limits assumed): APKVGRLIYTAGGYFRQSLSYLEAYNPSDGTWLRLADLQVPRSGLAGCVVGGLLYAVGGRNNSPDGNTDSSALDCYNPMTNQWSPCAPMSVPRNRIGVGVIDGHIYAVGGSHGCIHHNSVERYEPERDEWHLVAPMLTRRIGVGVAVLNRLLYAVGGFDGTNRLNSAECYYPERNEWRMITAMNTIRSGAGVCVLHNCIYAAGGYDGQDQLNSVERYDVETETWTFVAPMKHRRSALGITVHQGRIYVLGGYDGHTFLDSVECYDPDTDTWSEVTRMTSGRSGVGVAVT

B1: {[Stearyl-βAla-Leu-Gln-Cys(&1)-Asp-Pro-Glu-Thr-Gly-Glu-Cys(&2)-Leu-Pro-βAla-Arg-Lys-Lys-Arg-Arg-Gln- (peptide)
peptide: Stearyl-[βAla]LQCDPETGECLP[βAla]RKKRRQRRR-NH2
modifications: bridge 4-11; not fully specified (bridges); also: Cys4 and Cys11 cyclised, linker not given here
By IC50 is commonly meant the concentration that gives 50% inhibition. Low readings indicate greater potency, high ones weaker potency. With B1, the IC50 is < 100 nM and > 1 nM.
